The record followed here is patent US12209135B2, “Anti-CD45 antibodies and conjugates thereof” (priority 2019, dated 2025).

Data set [1] is described as follows: Two-week thermal / pH stress stability by HIC and peptide mapping. Type of data set: physicochemical. The settings on record: 4° C., 25° C., 40° C. for 15 days; high pH treatment. How it is done: A two-week stability assay was performed by incubating Ab3 and Ab4 at 4° C., 25° C., and 40° C. for 15 days, after which the antibodies were analyzed by […] (HIC). Briefly, 25 micrograms of the indicated antibody were injected onto a Tosoh TSKgel Phenyl-5PW 7.5 mm ID×7.5 cm 10-micron column (Catalog #07573) on a Waters ARC HPLC/UPLC system. […] This hydrophilic pre-peak was indicative of a potential site of post-translational modification (e.g., oxidation or deamidation). Peptide mapping was subsequently performed to identify which amino acids were modified in each antibody upon exposure to stress (high pH, low pH, and oxidative stress). The peptide mapping analysis identified a potential site of deamidation at an asparagine in CDR-L1 (N30 position) in response to high pH conditions (e.g., pH 8 or greater).
Accordingly, variants of Ab3 and Ab4 were generated in which the asparagine in CDR-L1 (e.g., at position 30B) was substituted with a serine. The resulting antibodies were named Ab7 and Ab5 respectively.

For a further data set, the target named is T1, rhesus CD45 ectodomain (Macaca mulatta, UniProt A0A1D5R142).
T1 construct: purified human, rhesus or cynomolgus CD45 ectodomain
T1 sequence (A0A1D5R142 26-581): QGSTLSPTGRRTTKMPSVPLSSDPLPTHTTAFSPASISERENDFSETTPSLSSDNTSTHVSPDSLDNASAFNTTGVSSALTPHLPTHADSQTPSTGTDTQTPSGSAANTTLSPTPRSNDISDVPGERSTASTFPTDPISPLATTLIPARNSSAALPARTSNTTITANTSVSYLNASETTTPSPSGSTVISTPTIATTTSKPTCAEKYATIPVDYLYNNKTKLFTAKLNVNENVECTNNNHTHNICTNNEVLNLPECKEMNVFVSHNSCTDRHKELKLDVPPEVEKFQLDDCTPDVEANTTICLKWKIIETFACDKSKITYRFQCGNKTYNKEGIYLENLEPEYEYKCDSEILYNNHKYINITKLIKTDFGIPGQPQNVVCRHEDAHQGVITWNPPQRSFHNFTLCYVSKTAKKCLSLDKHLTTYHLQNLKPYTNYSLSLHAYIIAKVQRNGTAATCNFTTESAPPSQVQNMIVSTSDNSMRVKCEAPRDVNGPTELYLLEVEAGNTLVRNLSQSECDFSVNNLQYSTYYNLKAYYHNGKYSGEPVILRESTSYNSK
Briefly: Biolayer interferometry (BLI, Octet) binding of immobilized IgG to purified CD45 ectodomain. The settings on record: Table 2, Rhesus CD45; for Kd: 50 nM antigen (Ab1: 300 nM). How it is done: (§1) Antibody binding studies were performed at 25° C. in 1×PBS supplemented with 0.1% w/v bovine serum albumin with a Pall ForteBio Octet Red96 using biolayer interferometry (BLI).
The apparent monovalent affinity (KD), apparent association rate (KON), and apparent dissociation rate (KOFF) were determined by local full fitting with a 1:1 binding model as calculated by ForteBio data analysis software version 10 of each IgG to purified human, cynomolgus or rhesus CD45 ectodomain. […] Binding was confirmed using […]
In general terms: In BLI a coated tip is dipped into the sample, and binding shifts an interference pattern.

The next data set has as its target T2, human CD45 ectodomain (Homo sapiens, UniProt P08575).
T2 construct: purified human, rhesus or cynomolgus CD45 ectodomain
T2 sequence (P08575 26-577): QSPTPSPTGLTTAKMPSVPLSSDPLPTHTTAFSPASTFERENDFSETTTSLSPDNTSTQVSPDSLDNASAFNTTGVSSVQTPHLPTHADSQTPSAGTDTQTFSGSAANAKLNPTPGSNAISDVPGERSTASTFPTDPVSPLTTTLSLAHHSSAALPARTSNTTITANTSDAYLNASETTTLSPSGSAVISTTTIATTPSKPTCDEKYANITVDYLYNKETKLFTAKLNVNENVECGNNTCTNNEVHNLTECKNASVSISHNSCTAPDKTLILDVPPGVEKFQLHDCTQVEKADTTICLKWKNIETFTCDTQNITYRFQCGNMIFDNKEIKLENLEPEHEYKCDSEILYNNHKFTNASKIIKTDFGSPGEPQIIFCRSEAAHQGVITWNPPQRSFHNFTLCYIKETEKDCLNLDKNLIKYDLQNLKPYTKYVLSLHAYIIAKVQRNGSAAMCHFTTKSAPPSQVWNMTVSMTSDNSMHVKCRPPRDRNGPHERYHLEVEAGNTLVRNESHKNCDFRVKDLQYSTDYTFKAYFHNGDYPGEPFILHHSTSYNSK
The description is as above. The settings on record: Table 2, Human CD45. On the procedure: as §1
(§2) The apparent monovalent affinity (KD), apparent association rate (KON), and apparent dissociation rate (KOFF) were determined by local full fitting with a 1:1 binding model as calculated by ForteBio data analysis software version 10 of each IgG to purified human, cynomolgus or rhesus CD45 ectodomain. […] Binding was confirmed using
Briefly, antibody binding studies were performed at 25° C. in 1×PBS supplemented with 0.1% w/v bovine serum albumin with a PALL FORTEBIO OCTET RED96 using biolayer interferometry (BLI). Each purified antibody was immobilized onto anti-human Fc biosensors (AHQ; PALL FORTEBIO 18-5001) and incubated with 100 nM of purified human or 300 nM of cynomolgus CD45 ectodomain.
(§3) The apparent monovalent affinity (KD), apparent association rate (KON), and apparent dissociation rate (KDIS or KOFF) were determined by local full fitting with a 1:1 binding model as calculated by FORTEBIO data analysis software version 10. […] Each of the selected humanized antibodies AbA, AbB, and AbC was able to cross react with human and cynomolgus CD45.

For data set [2], the system named is cynomolgus CD45 ectodomain. The description is as above. The settings on record: Table 2, Cynomolgus CD45; for Kd: 50 nM antigen (Ab1: 300 nM). How it is done: as §1, §2
Sequence of cynomolgus CD45 ectodomain (as listed by the source): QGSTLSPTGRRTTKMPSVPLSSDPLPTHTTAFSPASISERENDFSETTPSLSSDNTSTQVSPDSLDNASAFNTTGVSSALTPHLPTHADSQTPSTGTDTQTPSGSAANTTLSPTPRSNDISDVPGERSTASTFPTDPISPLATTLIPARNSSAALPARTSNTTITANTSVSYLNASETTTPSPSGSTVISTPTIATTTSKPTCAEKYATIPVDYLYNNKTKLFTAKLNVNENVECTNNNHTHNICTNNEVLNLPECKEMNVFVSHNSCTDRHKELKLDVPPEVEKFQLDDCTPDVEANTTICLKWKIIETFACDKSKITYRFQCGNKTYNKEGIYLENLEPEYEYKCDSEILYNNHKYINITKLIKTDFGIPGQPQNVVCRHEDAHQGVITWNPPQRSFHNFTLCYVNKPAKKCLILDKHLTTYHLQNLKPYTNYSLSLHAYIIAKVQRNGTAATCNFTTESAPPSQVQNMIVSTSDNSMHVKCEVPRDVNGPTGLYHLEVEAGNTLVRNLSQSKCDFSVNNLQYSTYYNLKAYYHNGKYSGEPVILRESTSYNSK
Briefly, antibody binding studies were performed at 25° C. in 1×PBS supplemented with 0.1% w/v bovine serum albumin with a PALL FORTEBIO OCTET RED96 using biolayer interferometry (BLI). […]
as §3

Positions count from the first letter of the chain named.

B1: Ab3: affinity matured human anti-CD45 IgG derived from Ab1; VH SEQ ID NO:21, VL SEQ ID NO:25 (antibody, V domains shown)
VH: QVQLVESGGGLVKPGGSLRLSCAASGFTFGGYSMNWVRQAPGKGLEWVSYISISGATITYADSVKGRFTISRDNAKNSLYLQMNSLRAEDTAVYYCARGGQYYYDSSDYGEVAFDIWGQGTMVTVSS
VL: DIVMTQSPLSLPVTPGEPASISCRSSQSLVSNGYNYLDWYLQKPGQSPQLLIYFGSSRASGVPDRFSGSGSGTDFTLKISRVEAEDVGVYYCMQRRRTPPFTFGGGTKVEIK
For the molecule B1, the “HIC hydrophilic pre-peak (deamidated species)” value in data set [1] was “hydrophilic pre-peak that increased as a function of thermal stress”. For the same molecule, the “Kdis” value came out at 0.000222 s⁻¹ in the data set with rhesus CD45 ectodomain, 0.000225 s⁻¹ with human CD45 ectodomain and 0.000192 s⁻¹ in data set [2]. The figures for the “Kon” value (in the data set with rhesus CD45 ectodomain; with human CD45 ectodomain; in data set [2]) were 135000 M⁻¹ s⁻¹, 260000 M⁻¹ s⁻¹ and 120000 M⁻¹ s⁻¹, respectively. Besides, the Kd (in general, the free concentration of one partner at which half of the binding sites on the other are occupied at equilibrium, for simple one-to-one binding) in the data set with rhesus CD45 ectodomain worked out at 1.65 nM; in data set [2] it was 1.61 nM.

B2: Ab4: affinity matured human anti-CD45 IgG derived from Ab1; VH SEQ ID NO:31, VL SEQ ID NO:35 (antibody, V domains shown)
VH: B1 VH with Q1E, K13Q, G30E, G31A, I53L, T59H, D105T
VL: DIVMTQSPLSLPVTPGEPASISCRSSQSLVSNGYNYLDWYLQKPGQSPQLLIYFGSSRASGVPDRFSGSGSGTDFTLKISRVEAEDVGVYYCMQRRRTPWSFGGGTKVEIK
Turning to B2, the “HIC hydrophilic pre-peak (deamidated species)” value in data set [1] is “hydrophilic pre-peak that increased as a function of thermal stress”. Also, the “Kdis” value came to 0.000102 s⁻¹ in the data set with rhesus CD45 ectodomain, 3.28e-06 s⁻¹ in the data set with human CD45 ectodomain and 7.89e-05 s⁻¹ in data set [2]. Besides, the “Kon” value was determined as 118000 M⁻¹ s⁻¹ with rhesus CD45 ectodomain, 236000 M⁻¹ s⁻¹ with human CD45 ectodomain and 110000 M⁻¹ s⁻¹ in data set [2]. Moreover, the results for the Kd (with rhesus CD45 ectodomain; in data set [2]) were 0.867 nM and 0.721 nM, respectively.
